Reference: IntAct's records for PubMed 25946333

How the values were obtained:
nemp1_mouse Nemp1 [1] = target: T1, nemp1_mouse Nemp1 (UniProt Q6ZQE4)
T1 sequence: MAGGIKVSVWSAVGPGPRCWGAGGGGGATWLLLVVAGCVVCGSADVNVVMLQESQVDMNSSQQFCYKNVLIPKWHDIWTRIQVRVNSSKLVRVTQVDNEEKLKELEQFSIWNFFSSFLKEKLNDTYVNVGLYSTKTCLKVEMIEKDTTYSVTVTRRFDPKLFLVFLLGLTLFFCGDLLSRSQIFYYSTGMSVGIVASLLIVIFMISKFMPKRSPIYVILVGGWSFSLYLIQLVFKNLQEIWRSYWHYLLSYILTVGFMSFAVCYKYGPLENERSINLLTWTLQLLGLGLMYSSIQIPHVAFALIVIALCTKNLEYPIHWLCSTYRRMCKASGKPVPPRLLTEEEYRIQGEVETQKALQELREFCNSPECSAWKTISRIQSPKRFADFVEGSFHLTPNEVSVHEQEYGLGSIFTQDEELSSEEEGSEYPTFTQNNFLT

nemp1_mouse Nemp1 [2] = target: T1, nemp1_mouse Nemp1; remark: listed apart in the source

effect of a mutation on the interaction (nemp1_mouse Nemp1 [1])	effect of a mutation on the interaction (nemp1_mouse Nemp1 [2])	Substance
with no effect		GTP-binding nuclear protein Ran (Mus musculus) (from UniProt P62827) Q69L
disrupting interaction strength	decreasing interaction strength	GTP-binding nuclear protein Ran (Mus musculus) (from UniProt P62827) T24N
disrupting interaction strength		GTP-binding nuclear protein Ran (Mus musculus) (from UniProt P62827) T42A
